Molecular target: Fas receptor on primary mouse thyroid follicular cells (TFC) (mouse) (UniProt P25446)
Experiment: cell-based or functional assay

UniProt P25446, sequence (P25446 22-327): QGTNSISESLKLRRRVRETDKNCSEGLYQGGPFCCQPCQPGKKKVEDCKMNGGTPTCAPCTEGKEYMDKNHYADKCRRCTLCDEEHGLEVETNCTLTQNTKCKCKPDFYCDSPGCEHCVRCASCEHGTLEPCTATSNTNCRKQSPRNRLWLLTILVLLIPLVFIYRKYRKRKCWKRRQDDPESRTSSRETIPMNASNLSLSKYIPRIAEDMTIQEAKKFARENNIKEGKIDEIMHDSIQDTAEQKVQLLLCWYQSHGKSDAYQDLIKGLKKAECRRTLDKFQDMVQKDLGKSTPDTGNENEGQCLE

percentage of proliferation increase of anti-Fas versus control cultures ([3H] thymidine), 48h: 37% | percentage of proliferation increase of anti-Fas versus control cultures ([3H] thymidine), 72h: 49% | percentage of proliferation increase of anti-Fas versus control cultures ([3H] thymidine), 96h: 61% | proliferation of anti-Fas treated TFC ([3H] thymidine, mean cpm of six wells): 392 to 1510 cpm
Substance: clone Jo2 anti-Fas antibody

— patent EP1324044A1
